Reference: patent US20100119588A1

Target: hemagglutinin H1 on influenza virus A/Puerto Rico/8/34 strain (H1N1) (influenza virus A/Puerto Rico/8/34 (H1N1)) (UniProt P03452)
Assay: cell-based or functional assay

Substance: C18-s2(1-4)P4A (C18-ARLA peptide amide)
- IC50(µM), plaque assay, infection of MDCK cells: > 100 µM
